Source: article PMC2187830 (The Journal of Experimental Medicine, 1990)

Tests used:
murine IL-7 receptor [1] = molecular target: T1, murine IL-7 receptor (mouse (endogenous in IxN/2b), UniProt P16872 21-459); test: radioligand binding
T1 sequence: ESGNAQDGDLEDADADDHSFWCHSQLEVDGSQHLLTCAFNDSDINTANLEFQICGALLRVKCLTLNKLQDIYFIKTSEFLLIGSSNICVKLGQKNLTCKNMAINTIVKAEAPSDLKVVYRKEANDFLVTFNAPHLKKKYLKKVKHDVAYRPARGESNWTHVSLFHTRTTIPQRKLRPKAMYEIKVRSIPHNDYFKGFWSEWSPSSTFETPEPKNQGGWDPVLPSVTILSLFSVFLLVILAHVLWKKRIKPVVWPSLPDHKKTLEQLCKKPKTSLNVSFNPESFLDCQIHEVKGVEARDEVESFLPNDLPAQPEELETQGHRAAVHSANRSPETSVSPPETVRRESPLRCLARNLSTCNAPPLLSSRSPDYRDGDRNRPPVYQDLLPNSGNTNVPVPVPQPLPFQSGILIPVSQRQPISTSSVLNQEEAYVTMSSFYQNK

murine IL-7 receptor [2] = molecular target: T1, murine IL-7 receptor; test: radioligand binding; remark: listed apart in the source

B1: 125I-labeled recombinant murine IL-7 (ligand)
chain: ECHIKDKEGKAYESVLMISIDELDKMTGTDSNCPNNEPNFFRKHVCDDTKEAAFLNRAARKLKQFLKMNISEEFNVHLLTVSQGTQTLVNCTSKEEKNVKEQKKNDACFLKRLLREIKTCWNKILKGSI
modifications: 125I on the single tyrosine residue (amino acid 12), nearly quantitatively radiolabeled
apparent Ka, high affinity component (murine IL-7 receptor [1]): 1.2e+10 M⁻¹ | apparent Ka, low affinity component (murine IL-7 receptor [2]): 4.8e+08 M⁻¹
